The data set “native gel or EMSA” concerns the molecule itself. In words: native gel or EMSA. For orientation: Mobility shift assays separate free from complexed probe on a gel.
The data set “SEC” deals with the molecule itself. In words: SEC. Background: SEC sorts molecules by how far they enter the pores of the column.

The text below walks through data of publication doi:10.1101/2022.01.28.478199 (bioRxiv, 2022).

Usually stoichiometry N stands for a count of units in the complex or per binding partner.

Values joined by “and” are separate entries in the source; they are usually repeats but may differ in a detail not shown here. Identical values can stand only once.

B1: Hsp78-6xHis (wild-type Hsp78 with a C-terminal 6x polyhistidine-tag) (natural protein)
chain: not shown
Turning to B1, the “stoichiometry N” value in the data set “native gel or EMSA” was 3 and 6.

B2: WT Hsp78 expressed and affinity purified from E. coli (natural protein)
chain: not shown
As to B2, the “stoichiometry N” value in “SEC” is 2 and 3.
